This assay addresses Kel1 (UniProt P38853). Kind of assay: GFP-trap IP of Kel1-GFP, anti-FLAG blot. Particulars: reference: wild-type Sst2-3xFLAG; sites S539.

For the substance RGS Sst2 (from UniProt P11972) S539A, the “binding against the reference” value is “stronger”.

Source of the values: paper PMC9394524.
